Assay results as given in patent publication US20090130692A1.

T1: human plasmin (Human), P00747
T1 chain: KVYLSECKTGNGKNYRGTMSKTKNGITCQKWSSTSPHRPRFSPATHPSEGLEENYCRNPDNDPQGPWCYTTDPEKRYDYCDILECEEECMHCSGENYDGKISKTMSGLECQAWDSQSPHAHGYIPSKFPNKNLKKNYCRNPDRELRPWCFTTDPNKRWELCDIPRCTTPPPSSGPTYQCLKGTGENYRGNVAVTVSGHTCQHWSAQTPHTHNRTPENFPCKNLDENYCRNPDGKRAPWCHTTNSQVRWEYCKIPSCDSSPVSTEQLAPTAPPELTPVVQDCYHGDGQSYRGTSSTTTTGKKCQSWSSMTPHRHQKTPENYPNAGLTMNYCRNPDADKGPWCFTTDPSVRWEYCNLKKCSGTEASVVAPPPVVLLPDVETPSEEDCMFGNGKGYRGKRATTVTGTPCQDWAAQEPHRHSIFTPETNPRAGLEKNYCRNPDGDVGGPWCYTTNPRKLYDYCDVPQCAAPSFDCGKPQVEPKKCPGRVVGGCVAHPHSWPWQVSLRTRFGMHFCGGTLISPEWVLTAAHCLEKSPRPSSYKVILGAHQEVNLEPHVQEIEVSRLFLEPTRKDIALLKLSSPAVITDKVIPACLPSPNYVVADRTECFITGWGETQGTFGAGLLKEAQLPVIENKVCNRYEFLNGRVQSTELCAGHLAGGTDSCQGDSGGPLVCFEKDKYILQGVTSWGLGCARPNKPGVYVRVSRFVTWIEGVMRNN

T2: porcine trypsin (Porcine), P00761
T2 chain: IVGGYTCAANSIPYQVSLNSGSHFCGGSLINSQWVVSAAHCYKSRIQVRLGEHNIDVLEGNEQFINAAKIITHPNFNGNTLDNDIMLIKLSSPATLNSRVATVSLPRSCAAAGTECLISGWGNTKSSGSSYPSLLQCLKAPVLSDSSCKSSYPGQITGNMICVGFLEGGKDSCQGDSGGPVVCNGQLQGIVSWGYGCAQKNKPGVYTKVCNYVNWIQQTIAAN


What was measured:
[1] = target: bovine pancreatic trypsin (bovine), P00760; experiment: enzyme inhibition; residual trypsin activity fitted to tight-binding equation (Morrison); apparent Ki (Kiapp)
[2] = target: human tryptase β-Ia (Human), Q15661; experiment: enzyme inhibition, selectivity panel; apparent Ki (Kiapp)
[3] = target: T1, human plasmin (Human), P00747; experiment: as above
[4] = target: sheep tryptase ST2 (Sheep); experiment: as above
[5] = target: T2, porcine trypsin (Porcine), P00761; experiment: as above
[6] = target: human tryptase β-II (Human), P20231; experiment: as above
[7] = target: hK3 (human kallikrein) (Human), P07288; experiment: as above
hK3 (human kallikrein) (Human), P07288, sequence (P07288 25-261): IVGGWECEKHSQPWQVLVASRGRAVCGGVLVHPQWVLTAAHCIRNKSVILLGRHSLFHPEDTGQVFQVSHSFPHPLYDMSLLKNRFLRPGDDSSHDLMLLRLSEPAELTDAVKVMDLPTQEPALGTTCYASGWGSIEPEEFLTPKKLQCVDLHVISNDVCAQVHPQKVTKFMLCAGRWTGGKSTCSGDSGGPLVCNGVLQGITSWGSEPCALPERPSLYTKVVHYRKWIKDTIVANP

human tryptase β-Ia (Human), Q15661, sequence (Q15661 31-275 limits assumed): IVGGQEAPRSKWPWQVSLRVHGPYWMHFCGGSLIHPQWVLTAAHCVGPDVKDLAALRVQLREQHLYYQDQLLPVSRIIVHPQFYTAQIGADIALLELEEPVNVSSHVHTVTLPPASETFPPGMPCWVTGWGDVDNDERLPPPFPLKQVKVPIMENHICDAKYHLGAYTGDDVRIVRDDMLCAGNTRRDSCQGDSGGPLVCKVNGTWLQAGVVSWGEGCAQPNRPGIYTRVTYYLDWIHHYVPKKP
human tryptase β-II (Human), P20231, sequence (P20231 31-275 limits assumed): as the sequence (Q15661 31-275 limits assumed) above, with H21R, G22D, P23R counted along it
bovine pancreatic trypsin (bovine), P00760, sequence (P00760 24-246): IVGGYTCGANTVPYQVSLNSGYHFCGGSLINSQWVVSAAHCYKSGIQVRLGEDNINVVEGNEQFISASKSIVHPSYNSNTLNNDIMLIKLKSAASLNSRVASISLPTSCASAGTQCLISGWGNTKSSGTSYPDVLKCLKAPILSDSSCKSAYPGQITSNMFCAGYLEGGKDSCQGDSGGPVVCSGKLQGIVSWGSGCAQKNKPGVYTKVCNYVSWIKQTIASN
sheep tryptase ST2 (Sheep), sequence (Q9XSM2 29-273): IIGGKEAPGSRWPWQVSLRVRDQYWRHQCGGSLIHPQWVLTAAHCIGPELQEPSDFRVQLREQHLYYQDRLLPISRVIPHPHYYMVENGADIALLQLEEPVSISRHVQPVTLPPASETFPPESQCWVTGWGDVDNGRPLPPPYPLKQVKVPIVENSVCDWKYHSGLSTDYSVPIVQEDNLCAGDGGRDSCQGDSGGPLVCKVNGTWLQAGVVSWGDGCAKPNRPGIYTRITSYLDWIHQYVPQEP

Binder	Ki [1] [nM]	Ki [2] [nM]	Ki [3] [nM]	Ki [4] [nM]	Ki [5] [nM]	Ki [6] [nM]	Ki [7] [nM]
GVCPKILKKCRRDSDCPGACICRGNGYCG (modifications not checked) [SE-MC-K]	0.3	–	–	–	–	–	–
KKVGVCPKILKKCRRDSDCPGACICRGNGYCG (modifications not checked) [MCoTI-KKV]	0.4	3	400	100	0.4	4	–
GVCPRILKKCRRDSDCPGACICRGNGYCG (modifications not checked) [MCoTI-R]	0.8	40	–	1000	0.8	40	100
GSVCPKILKKCRRDSDCLAGCVCGPNGFCGS (modifications not checked) [MCoEeTI]	0.03	–	–	–	–	–	–
GVCPKILAKCRRDSDCPGACICRGNGYCG (modifications not checked) [MCoTI-LAKC]	0.2	–	–	–	–	–	–
GVCPKILKACRRDSDCPGACICRGNGYCG (modifications not checked) [MCoTI-LKAC]	0.4	–	–	–	–	–	–
GVCPKILRKCRRDSDCPGACICRGNGYCG (modifications not checked) [MCoTI-LRKC]	0.5	–	–	–	–	–	–
GVCPKILKRCRRDSDCPGACICRGNGYCG (modifications not checked) [MCoTI-LKRC]	0.4	–	–	–	–	–	–
GVCPGILKKCRRDSDCPGACICRGNGYCG (modifications not checked) [MCoTI-AlaG]	1000	–	–	–	–	–	–
GVCPKILKKCRRDSDCLAGCVCGPNGFCGS (modifications not checked) [SE-MG-0]	0.3	70	600	4000	0.3	70	–
